The values below come from patent US20040077535A1 (Takeda / Millennium, published 2004).

Experiment [1] concerns the target T1, human type I5E receptor protein (human, UniProt Q8NFJ6 1-384).
T1 construct: Stably expressed in CHO/dhfr- cells (clone I5E-4); Whole cells in the FLIPR assays; also called ISE receptor; I5E-4 cell
The experiment is described as follows: displacement of 125I-MIT1 from I5E-4 CHO cell membrane fraction, glass fiber filter binding assay.

Experiment [2] concerns the target T2, G protein-coupled receptor protein ZAQ (human, UniProt Q8TCW9 1-393).
T2 construct: Stably expressed in CHO/dhfr- cells (clone ZAQC-B1); Whole cells in the FLIPR assays; also called ZAQ receptor; ZAQC-B1 cells
Kind of experiment: displacement of 125I-MIT1 from ZAQC-B1 CHO cell membrane fraction, glass fiber filter binding assay. (Displacement assays read how much labelled ligand stays bound in the presence of the test substance.)

The target in experiment [3] is T2, G protein-coupled receptor protein ZAQ. Kind of experiment: cell-based or functional assay.

For orientation: IC50 means the concentration that inhibits the measured activity by half.

T2 sequence (Q8TCW9 whole entry): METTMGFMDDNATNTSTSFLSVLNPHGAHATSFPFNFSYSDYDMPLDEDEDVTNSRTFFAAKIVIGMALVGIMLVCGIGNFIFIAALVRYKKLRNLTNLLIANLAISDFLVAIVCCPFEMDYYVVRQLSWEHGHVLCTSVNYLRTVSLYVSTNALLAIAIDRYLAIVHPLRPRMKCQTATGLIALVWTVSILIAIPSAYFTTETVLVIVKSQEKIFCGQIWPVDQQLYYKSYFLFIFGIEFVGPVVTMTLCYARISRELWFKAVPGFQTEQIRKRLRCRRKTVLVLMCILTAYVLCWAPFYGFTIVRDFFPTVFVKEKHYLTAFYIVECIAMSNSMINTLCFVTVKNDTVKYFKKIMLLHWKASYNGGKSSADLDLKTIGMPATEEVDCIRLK
T1 sequence (Q8NFJ6 whole entry): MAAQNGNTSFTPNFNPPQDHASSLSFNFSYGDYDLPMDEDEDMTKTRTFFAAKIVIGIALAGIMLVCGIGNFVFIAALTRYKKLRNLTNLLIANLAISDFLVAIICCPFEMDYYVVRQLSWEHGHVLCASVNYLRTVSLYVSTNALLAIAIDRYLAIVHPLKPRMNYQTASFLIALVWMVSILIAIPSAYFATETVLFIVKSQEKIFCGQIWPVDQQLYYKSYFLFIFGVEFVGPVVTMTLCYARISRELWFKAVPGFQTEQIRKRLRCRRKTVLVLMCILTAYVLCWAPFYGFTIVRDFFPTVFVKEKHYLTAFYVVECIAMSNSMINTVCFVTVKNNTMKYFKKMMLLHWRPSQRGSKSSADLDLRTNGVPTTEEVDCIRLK

B1: snake venom Mamba Intestinal Toxin 1 (MIT1) (ligand)
peptide: AVITGACERDLQCGKGTCCAVSLWIKSVRVCTPVGTSGEDCHPASHKIPFSGQRMHHTCPCAPNLACVQTSPKKFKCLSK
notes: also called snake venom MIT1; non-labeled MIT1
Turning to B1, the IC50 is 32 pM in experiment [1] and 38 pM in experiment [2].

B2: human type ZAQ ligand mature peptide (type G, 86 amino acid residues) (ligand)
peptide: AVITGACERDVQCGAGTCCAISLWLRGLRMCTPLGREGEECHPGSHKVPFFRKRKHHTCPCLPNLLCSRFPDGRYRCSMDLKNINF
notes: also called human type ZAQ ligand peptide; ZAQL-1
Take B2: the IC50 came out at 93 pM in experiment [1] and 35 pM in experiment [2]. The “increase of the intracellular calcium ion concentration (FLIPR), EC50” value in experiment [3] was 96 pM.
